Values joined by “and” are separate entries in the source; they are usually repeats but may differ in a detail not shown here. Identical values can stand only once. Like-named read-outs stand apart in the source and are kept apart here.
Key:
control (Fig. 49) [1] = target: control (Fig. 49)
control (Fig. 49) [2] = target: control (Fig. 49); remark: listed apart in the source

DR4 2×His DTB-HA306-318 complexes (DTB-streptactin purified monomers) (from UniProt P01903 26-216) (peptide-MHC)
% of cells in Q2 (multimer+ CD4+) (control (Fig. 49) [1]): 0.985% and 0.623% | % of cells in Q2 (multimer+ CD4+) (control (Fig. 49) [2]): 0.535% and 0.421%
